Results on 13 proteins are retold here after patent publication US20180009908.

Residue numbers refer to the chain shown, from its start. In names and notes the source's numbering stands.

The nature of data set [1]: LCMS, IgG1 BsAb co-expression; HCB homodimer species.
Data set [2] in a line: LCMS, IgG4 BsAb co-expression; HCB homodimer species.
The target of data set [3] is matuzumab HC_20.8_B + matuzumab LC (IgG1). As to the kind of experiment: LCMS, IgG1 BsAb co-expression in HEK293F.
Data set [4] has the same target. Kind of data set: LCMS, IgG1 BsAb co-expression; HCA/HCB heterodimer carrying two LC2.
The nature of data set [5]: LCMS, IgG1 BsAb co-expression; HCA homodimer species.
The target of data set [6] is matuzumab HC_20.8_B + matuzumab LC (IgG1). Kind of data set: LCMS, IgG1 BsAb co-expression; HCA/HCB heterodimer carrying two LC1.
Data set [7] deals with T1, HA-tagged human IgG1 Fc portion with CH3 mutations Y349S, K370Y, T366V, K409V.
T1 chain: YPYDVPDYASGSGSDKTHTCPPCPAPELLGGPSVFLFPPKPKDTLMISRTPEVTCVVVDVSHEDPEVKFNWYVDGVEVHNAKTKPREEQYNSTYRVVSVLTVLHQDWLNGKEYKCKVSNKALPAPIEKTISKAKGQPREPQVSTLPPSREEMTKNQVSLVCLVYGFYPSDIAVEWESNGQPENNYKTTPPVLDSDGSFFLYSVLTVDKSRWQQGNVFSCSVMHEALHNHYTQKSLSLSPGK
Kind of data set: UPLC SEC of protein G-purified one-arm antibody co-expressed in HEK293F.

Data set [8] has as its target T2, HA-tagged human IgG1 Fc portion with CH3 mutations Y349S, K370Y, T366M, K409V.
T2 chain: T1 chain with V160M
The data set is described as above.

Where [9] appears, read: pertuzumab × matuzumab bispecific.

B1: matuzumab HC_20.8.34_B + matuzumab LC (IgG1) (protein)
chain 1: QVQLVQSGAEVKKPGASVKVSCKASGYTFTSHWMHWVRYAPGQGLEWIGEFNPSNGRTNYNEKFKSKATMTVDTSTNTAYMELSSLRSEDTAVYYCASRDYDYDGRYFDYWGRGTLVTVSSASTKGPSVFPLAPCSKSTSGGTAALGCLVKDYFPEPVTVSWNSGALTSGVHTFPAVLQSSGLYSLSSVVTVPSSSLGTQTYICNVNHKPSNTKVDKKVEPDSGDKTHTCPPCPAPELLGGPSVFLFPPKPKDTLMISRTPEVTCVVVDVSHEDPEVKFNWYVDGVEVHNAKTKPREEQYNSTYRVVSVLTVLHQDWLNGKEYKCKVSNKALPAPIEKTISKAKGQPREPQVYTLPPSRGDMTKNQVQLTCLVKGFYPSDIAVEWESNGQPENNYKTTPPVLDSDGSFFLASKLTVDKSRWQQGNVFSCSVMHEALHNHYTQKSLSLSPGK
chain 2: DIQMTQSPSSLSASVGDRVTITCSASSSVTYMYWYQRKPGDAPKLLIYDTSNLASGVPSRFSGSGSGTDYTFTISSLQPEDIATYYCQQWSSHIFTFGQGTKVEIKRTVAAPSVFIFPPSKEQLKSGTASVVCLLNNFYPREAKVQWKVDNALQSGNSQESVTEQDSKDSTYSLSSTLTLSKADYEKHKVYACEVTHQGLSSPVTKSFNRGEC
For the protein B1, the % BB Homodimer (incorrect assembly) in data set [1] (MetMAb × matuzumab bispecific) came out at 0%; in data set [1] (setting [9]), 1.6%.

B2: matuzumab HC_7.8.60_B + matuzumab LC (IgG1) (protein)
chain 1: B1 chain 1 with E349R, Q351R, G360E, D361E, Q368S, T370V, A411Y, K413V
chain 2: B1 chain 2
As to B2, the % BB Homodimer (incorrect assembly) in data set [1] was 1.3%.

B3: matuzumab HC_20.8.34_B + matuzumab LC (IgG4 HC backbone) (protein)
chain 1: QVQLVQSGAEVKKPGASVKVSCKASGYTFTSHWMHWVRYAPGQGLEWIGEFNPSNGRTNYNEKFKSKATMTVDTSTNTAYMELSSLRSEDTAVYYCASRDYDYDGRYFDYWGRGTLVTVSSASTKGPSVFPLAPCSRSTSESTAALGCLVKDYFPEPVTVSWNSGALTSGVHTFPAVLQSSGLYSLSSVVTVPSSSLGTKTYTCNVDHKPSNTKVDKRVESDYGPPCPPCPAPEAAGGPSVFLFPPKPKDTLMISRTPEVTCVVVDVSQEDPEVQFNWYVDGVEVHNAKTKPREEQFQSTYRVVSVLTVLHQDWLNGKEYKCKVSNKGLPSSIEKTISKAKGQPREPQVYTLPPSQGDMTKNQVQLTCLVKGFYPSDIAVEWESNGQPENNYKTTPPVLDSDGSFFLASRLTVDKSRWQEGNVFSCSVMHEALHNHYTQKSLSLSLG
chain 2: B1 chain 2
As for B3, the % BB Homodimer (incorrect assembly) came out at 0% in data set [2] (MetMAb × Matuzumab IgG BsAbs (with select CH3 Designs)) and 3.6% in data set [2] (Pertuzumab × Matuzumab IgG BsAbs (with select CH3 Designs)).

B4: matuzumab HC_20.8.37_B + matuzumab LC (IgG1) (protein)
chain 1: B1 chain 1 with G360E, Q368R
chain 2: B1 chain 2
As for B4, the values for the % BB Homodimer (incorrect assembly) in data set [1] (MetMAb × matuzumab bispecific) and in data set [1] (setting [9]) were 0% and 0.5%, respectively.

B5: matuzumab HC_7.8.60_B + matuzumab LC (IgG4 HC backbone) (protein)
chain 1: B3 chain 1 with E346R, Q348R, G357E, D358E, Q365S, T367V, A408Y, R410V
chain 2: B1 chain 2
Turning to B5, the % BB Homodimer (incorrect assembly) in data set [2] was found to be 0%.

B6: BHA10 HC_7.8.60_B + BHA10 LC (IgG4 HC backbone) (protein)
chain 1: QVQLVQSGAEVKKPGSSVKVSCKASGYTFTTYYLHWVRYAPGQGLEWMGWIYPGNVHAQYNEKFKGRVTITADKSTSTAYMELSSLRSEDTAVYYCARSWEGFPYWGRGTTVTVSSASTKGPSVFPLAPCSRSTSESTAALGCLVKDYFPEPVTVSWNSGALTSGVHTFPAVLQSSGLYSLSSVVTVPSSSLGTKTYTCNVDHKPSNTKVDKRVESDYGPPCPPCPAPEAAGGPSVFLFPPKPKDTLMISRTPEVTCVVVDVSQEDPEVQFNWYVDGVEVHNAKTKPREEQFQSTYRVVSVLTVLHQDWLNGKEYKCKVSNKGLPSSIEKTISKAKGQPRRPRVYTLPPSQEEMTKNQVSLVCLVKGFYPSDIAVEWESNGQPENNYKTTPPVLDSDGSFFLYSVLTVDKSRWQEGNVFSCSVMHEALHNHYTQKSLSLSLG
chain 2: DIQMTQSPSSLSASVGDRVTITCKASQNVGINVAWYQRKPGDAPKSLISSASYRYSGVPSRFSGSGSGTDFTLTISSLQPEDFATYFCQQYDTYPFTFGQGTKVEIKRTVAAPSVFIFPPSKEQLKSGTASVVCLLNNFYPREAKVQWKVDNALQSGNSQESVTEQDSKDSTYSLSSTLTLSKADYEKHKVYACEVTHQGLSSPVTKSFNRGEC
In turn, B6 returned a % BB Homodimer (incorrect assembly) in data set [2] of 4.2%.

B7: BHA10 HC_20.8.34_B + BHA10 LC (IgG4 HC backbone) (protein)
chain 1: B6 chain 1 with R341E, R343Q, E352G, E353D, S360Q, V362T, Y403A, V405R
chain 2: B6 chain 2
Protein B7 had a % BB Homodimer (incorrect assembly) in data set [2] of 0%.

B8: BHA10 HC_7.8.60_B + BHA10 LC (IgG1) (protein)
chain 1: QVQLVQSGAEVKKPGSSVKVSCKASGYTFTTYYLHWVRYAPGQGLEWMGWIYPGNVHAQYNEKFKGRVTITADKSTSTAYMELSSLRSEDTAVYYCARSWEGFPYWGRGTTVTVSSASTKGPSVFPLAPCSKSTSGGTAALGCLVKDYFPEPVTVSWNSGALTSGVHTFPAVLQSSGLYSLSSVVTVPSSSLGTQTYICNVNHKPSNTKVDKKVEPDSGDKTHTCPPCPAPELLGGPSVFLFPPKPKDTLMISRTPEVTCVVVDVSHEDPEVKFNWYVDGVEVHNAKTKPREEQYNSTYRVVSVLTVLHQDWLNGKEYKCKVSNKALPAPIEKTISKAKGQPRRPRVYTLPPSREEMTKNQVSLVCLVKGFYPSDIAVEWESNGQPENNYKTTPPVLDSDGSFFLYSVLTVDKSRWQQGNVFSCSVMHEALHNHYTQKSLSLSPGK
chain 2: B6 chain 2
For the protein B8, the % BB Homodimer (incorrect assembly) in data set [1] was 1.6%.

B9: BHA10 HC_20.8.37_B + BHA10 LC (IgG1) (protein)
chain 1: B8 chain 1 with R344E, R346Q, E356D, S363R, V365T, Y406A, V408K
chain 2: B6 chain 2
With B9, in data set [1], the % BB Homodimer (incorrect assembly) was 0%.

B10: BHA10 HC_20.8.34_B + BHA10 LC (IgG1) (protein)
chain 1: B8 chain 1 with R344E, R346Q, E355G, E356D, S363Q, V365T, Y406A, V408K
chain 2: B6 chain 2
As to B10, in data set [1], the % BB Homodimer (incorrect assembly) stood at 0%.

B11: BHA10 HC_20.8_B + BHA10 LC (IgG1) (protein)
chain 1: B8 chain 1 with R344E, R346Q, E356D, S363Q, V365T, Y406A, V408K
chain 2: B6 chain 2
In data set [1], B11 showed a % BB Homodimer (incorrect assembly) of 0%.

B12: MetMAb HC_20.8_A + MetMAb LC (IgG1) (protein)
chain 1: EVQLVESGGGLVQPGGSLRLSCAASGYTFTSYWLHWVRKAPGKGLEWVGMIDPSNSDTRFNPEFKDRFTISADTSKNTAYLQMNSLRAEDTAVYYCATYRSYVTPLDYWGQGTLVTVSSASTKGPSVFPLAPSSKSTSGGTAALGCLVKDYFPEPVTVSWNSGALTSGVATGPAVLQSSGLYSLSSVVTVPSSSLGTQTYICNVNHKPSNTKVDKKVEPKSCDKTHTCPPCPAPELLGGPSVFLFPPKPKDTLMISRTPEVTCVVVDVSHEDPEVKFNWYVDGVEVHNAKTKPREEQYQSTYRVVSVLTVLHQDWLNGKEYKCKVSNKALPAPIEKTISKAKGQPREPQVSTLPPSREEMTKNQVSLVCLVYGFYPSDIAVEWESNGQPENNYKTTPPVLDSDGSFFLYSVLTVDKSRWQQGNVFSCSVMHEALHNHYTQKSLSLSPGK
chain 2: RIQMTQSPSSLSASVGDRVTITCKSSQSLLYTSSQKNYLAWYQDKPGKAPKLLIYWASTRESGVPSRFSGSGSGTDFTLTISSLQPEDFATYYCQQYYAYPWTFGQGTKVEIKGQPKAAPSVTLFPPSSEELQANKATLVCYISDFYPGAVTVAWKADSSPVKAGVETTTPSKQSNNKYAAWSYLSLTPEQWKSHRSYSCQVTHEGSTVEKTVAPTEC
Take B12: the % AB (LC1/LC2) (correct IgG BsAb assembly) in data set [3] is 75.6%. Moreover, the % AB (2x LC2) (incorrect assembly) in data set [4] was 24.4%. This protein displayed a % AA Homodimer (incorrect assembly) in data set [5] of 0%. In addition, in data set [6], the % AB (2x LC1) (incorrect assembly) turned out to be 0%.

B13: anti-c-Met 5D5 VH-human IgG1 HC with CH3 mutations E357D, S364Q, Y407A, with 5D5 light chain (protein)
chain 1: EVQLVESGGGLVQPGGSLRLSCAASGYTFTSYWLHWVRQAPGKGLEWVGMIDPSNSDTRFNPNFKDRFTISADTSKNTAYLQMNSLRAEDTAVYYCATYRSYVTPLDYWGQGTLVTVSSASTKGPSVFPLAPSSKSTSGGTAALGCLVKDYFPEPVTVSWNSGALTSGVHTFPAVLQSSGLYSLSSVVTVPSSSLGTQTYICNVNHKPSNTKVDKRVEPKSCDKTHTCPPCPAPELLGGPSVFLFPPKPKDTLMISRTPEVTCVVVDVSHEDPEVKFNWYVDGVEVHNAKTKPREEQYNSTYRVVSVLTVLHQDWLNGKEYKCKVSNKALPAPIEKTISKAKGQPREPQVYTLPPSREDMTKNQVQLTCLVKGFYPSDIAVEWESNGQPENNYKTTPPVLDSDGSFFLASKLTVDKSRWQQGNVFSCSVMHEALHNHYTQKSLSLSPGK
chain 2: DIQMTQSPSSLSASVGDRVTITCKSSQSLLYTSSQKNYLAWYQQKPGKAPKLLIYWASTRESGVPSRFSGSGSGTDFTLTISSLQPEDFATYYCQQYYAYPWTFGQGTKVEIKRTVAAPSVFIFPPSDEQLKSGTASVVCLLNNFYPREAKVQWKVDNALQSGNSQESVTEQDSKDSTYSLSSTLTLSKADYEKHKVYACEVTHQGLSSPVTKSFNRGEC
With B13, the % heterodimer (UPLC) is 92.5% in data set [7] and 93% in data set [8].
